{"source": "patent US6988446B2", "about": "“Purified nitric oxide synthase” (priority 1996, dated 2006)", "key": {"nNOS-II [1]": {"target": "T1, nNOS-II (Rattus norvegicus, UniProt P29476)", "T1 sequence (P29476 whole entry)": "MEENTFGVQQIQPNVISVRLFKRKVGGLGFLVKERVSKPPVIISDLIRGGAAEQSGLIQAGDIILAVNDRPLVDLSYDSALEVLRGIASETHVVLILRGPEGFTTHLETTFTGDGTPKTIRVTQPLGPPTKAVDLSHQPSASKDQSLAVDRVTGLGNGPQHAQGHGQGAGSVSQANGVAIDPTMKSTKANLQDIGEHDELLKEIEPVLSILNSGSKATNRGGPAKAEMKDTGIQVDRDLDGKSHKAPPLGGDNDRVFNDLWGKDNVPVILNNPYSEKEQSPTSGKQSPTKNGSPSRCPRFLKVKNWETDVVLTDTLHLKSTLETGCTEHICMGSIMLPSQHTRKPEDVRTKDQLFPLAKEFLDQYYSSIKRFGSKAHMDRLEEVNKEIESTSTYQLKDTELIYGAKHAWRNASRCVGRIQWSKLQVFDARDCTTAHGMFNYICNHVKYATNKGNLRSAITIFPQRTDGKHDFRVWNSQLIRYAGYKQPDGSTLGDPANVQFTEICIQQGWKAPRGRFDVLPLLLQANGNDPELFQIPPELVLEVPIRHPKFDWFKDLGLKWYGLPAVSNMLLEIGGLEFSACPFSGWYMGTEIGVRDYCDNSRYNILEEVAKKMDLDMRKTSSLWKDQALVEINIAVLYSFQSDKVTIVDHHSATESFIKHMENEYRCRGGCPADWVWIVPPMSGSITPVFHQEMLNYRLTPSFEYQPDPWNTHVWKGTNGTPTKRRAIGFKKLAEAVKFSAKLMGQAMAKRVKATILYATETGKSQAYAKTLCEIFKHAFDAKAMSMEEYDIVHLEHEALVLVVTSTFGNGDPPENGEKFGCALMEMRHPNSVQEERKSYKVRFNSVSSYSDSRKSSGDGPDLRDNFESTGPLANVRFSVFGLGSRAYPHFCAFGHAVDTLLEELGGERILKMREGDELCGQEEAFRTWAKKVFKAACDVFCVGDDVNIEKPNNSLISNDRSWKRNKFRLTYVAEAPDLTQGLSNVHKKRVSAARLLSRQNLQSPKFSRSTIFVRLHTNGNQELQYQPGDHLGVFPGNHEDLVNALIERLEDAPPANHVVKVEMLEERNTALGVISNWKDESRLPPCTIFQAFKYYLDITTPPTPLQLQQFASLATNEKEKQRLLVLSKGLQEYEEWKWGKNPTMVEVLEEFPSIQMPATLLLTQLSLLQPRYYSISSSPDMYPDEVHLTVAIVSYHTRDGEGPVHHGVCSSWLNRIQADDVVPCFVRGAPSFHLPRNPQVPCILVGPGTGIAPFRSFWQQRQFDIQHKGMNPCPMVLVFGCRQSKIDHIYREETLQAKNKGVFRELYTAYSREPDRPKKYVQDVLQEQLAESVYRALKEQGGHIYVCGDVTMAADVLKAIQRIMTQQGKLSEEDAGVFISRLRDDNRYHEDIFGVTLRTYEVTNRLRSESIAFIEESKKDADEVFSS", "assay": "Kinetic determinations (KM, Vmax, Ki) with the standard enzyme assay", "format": "biochemical", "protocol": "(§1) NOS Activity Assay: NOS activity was determined spectrophotometrically by the rapid and quantitative oxidation of oxyhemoglobin to methemoglobin (Feelish et al., Eur. J. Pharmacol. 139:19-30 (1987); Olken et al., Biochem. Biophys. Res. Commun. 177:828-833 (1991)).\n(§2) Thus, reaction mixtures for NOS assays containing 50 mM Tris-HCl buffer (pH 7.5), were optimized to contain 4 μM oxyhemoglobin, 100 μM NADPH, 1 mM CaCl2, 10 μM FAD, 10 μM FMN, 20 μM BH4, 150 μM DTT, 100 μM BK or L-arginine and 0.1-3 μg enzyme in a final volume of 0.5 mL.\n(§3) Thus, calmodulin (10 μg/mL) was added to the reaction mixtures when L-arginine was used as substrate.\nKinetic data were calculated by fitting experimental data to the EZ-FIT program (Perrella, Anal. Biochem. 174.437-447 (1988)).\n(§4) NOS activity assay. NOS activity was determined spectrophotometrically by the rapid and quantitative oxidation of oxyhemoglobin to methemoglobin (10,11). Optimized reaction mixtures for NOS assays contained 50 mM Tris-HCl buffer (pH 7.5), and were optimized to contain 4 μM oxyhemoglobin, 100 μM NADPH, 1 mM CaCl2, 10 μM FAD, 10 μM FMN, 20 μM BH. 150 μM DTT, 100 μM BK or L-arginine and 0.1-3 μg enzyme in a final volume of 0.5 ml. Calmodulin (10 μg/ml) was added to the reaction mixtures when L-arginine was used as substrate.\nKinetic determinations. Kinetic experiments were conducted using the standard enzyme assay described above. […] Kinetic data were calculated by fitting experimental data to EZ-FIT program (12)."}, "nNOS-II [2]": {"target": "T1, nNOS-II", "assay": "Standard NOS enzyme assay (oxyhemoglobin to methemoglobin), peptides as substrates, initial velocity", "format": "biochemical", "set-up": "decrease of activity as substrate: concentration or dose not given beside the values", "settings": "for relative activity as substrate for nNOS-II (in words): comparator (arginine or BK)", "protocol": "as §1, §2, §3, §4"}, "nNOS": {"target": "nNOS (Rattus norvegicus, UniProt P29476)", "settings": "cited from earlier work"}, "[3]": {"settings": "Table 3, substrate 100 μM (poly-arginine 5 μg/ml), purified nNOS-II 0.2 μg, activity for arginine = 100%, means of three measurements"}, "[4]": {"settings": "substrate 100 μM (poly-arginine 5 μg/ml), purified nNOS-II 0.2 μg, activity for arginine = 100%, means of three measurements"}}, "note": "Like-named read-outs stand apart in the source and are kept apart here. Marks after values point to notes of the source that are not given here. Non-standard residues stand in square brackets, D forms with d. No end group written: not given here. 2Thi = N[C@@H](Cc1cccs1)C(=O)O", "data": [{"compound": "N=C(N)NCCC[C@H](N)C(=O)O", "note": "[L-arginine]", "values": [{"measurement": "apparent Vmax", "setting": "nNOS-II [1]; substrate of nNOS-II, calmodulin added when L-arginine is substrate", "result": 0.85, "unit": "μmol/min/mg protein"}, {"measurement": "Relative Activity (%)", "setting": "nNOS-II [2]", "result": "100^c %"}, {"measurement": "Relative activity (%)", "setting": "nNOS-II [2]", "result": "100^c %"}, {"measurement": "Km", "setting": "nNOS; previously described nNOS (Bredt et al.), read-out: reported KM for nNOS", "result": 2, "unit": "µM"}, {"measurement": "apparent Vmax for nNOS", "setting": "nNOS; previously described nNOS, L-arginine as substrate", "result": 0.96, "unit": "μmol/min/mg protein"}]}, {"compound": "Arg-Pro-Pro-Gly-Phe (RPPGF; rat) [BK fragment 1-5]", "values": [{"measurement": "Relative activity (%)", "setting": "nNOS-II [2]; [3]", "result": 61, "unit": "%"}, {"measurement": "Relative Activity (%)", "setting": "nNOS-II [2]; [4]", "result": 61, "unit": "%"}, {"measurement": "activity of that for BK", "setting": "nNOS-II [2]; text of Example 2, relative to BK", "result": "about 50%"}]}, {"compound": "Arg-Pro-Pro-Gly-Phe-Ser-Pro-Phe (APPGFSPF; rat) [Des-Arg^9-BK]", "values": [{"measurement": "Relative activity (%)", "setting": "nNOS-II [2]; [3]", "result": 180, "unit": "%"}, {"measurement": "Relative Activity (%)", "setting": "nNOS-II [2]; [4]", "result": 180, "unit": "%"}, {"measurement": "relative activity as substrate for nNOS-II (in words)", "setting": "nNOS-II [2]; text of Example 2", "result": "about one-fold higher than that of arginine"}]}, {"compound": "ISRPPGFSPFR [Ile-Ser-BK]", "values": [{"measurement": "Relative activity (%)", "setting": "nNOS-II [2]; [3]", "result": 110, "unit": "%"}, {"measurement": "Relative Activity (%)", "setting": "nNOS-II [2]; [4]", "result": 110, "unit": "%"}]}, {"compound": "KPPGFSPFR [[Lys^1]-BK]", "values": [{"measurement": "Relative activity (%)", "setting": "nNOS-II [2]; [3]", "result": 113, "unit": "%"}, {"measurement": "Relative Activity (%)", "setting": "nNOS-II [2]; [4]", "result": 113, "unit": "%"}]}, {"compound": "Lys-Arg-Pro-Pro-Gly-Phe-Ser-Pro-Phe-Arg [Lys-BK]", "values": [{"measurement": "Relative Activity (%)", "setting": "nNOS-II [2]", "result": 116, "unit": "%"}, {"measurement": "Relative activity (%)", "setting": "nNOS-II [2]", "result": 116, "unit": "%"}, {"measurement": "relative activity as substrate for nNOS-II (in words)", "setting": "nNOS-II [2]; text of Example 2", "result": "almost the same activity"}]}, {"compound": "Met-Lys-Arg-Pro-Pro-Gly-Phe-Ser-Pro-Phe-Arg [Met-Lys-BK]", "values": [{"measurement": "Relative Activity (%)", "setting": "nNOS-II [2]", "result": 0, "unit": "%"}, {"measurement": "Relative activity (%)", "setting": "nNOS-II [2]", "result": 0, "unit": "%"}, {"measurement": "relative activity as substrate for nNOS-II (in words)", "setting": "nNOS-II [2]; text of Example 2", "result": "no activity at all"}]}, {"compound": "PPGFSP [BK fragment 2-7]", "values": [{"measurement": "Relative activity (%)", "setting": "nNOS-II [2]; [3]", "result": 0, "unit": "%"}, {"measurement": "Relative Activity (%)", "setting": "nNOS-II [2]; [4]", "result": 0, "unit": "%"}]}, {"compound": "PPGFSPFR [Des-Arg^1-BK]", "values": [{"measurement": "Relative activity (%)", "setting": "nNOS-II [2]; [3]", "result": 94, "unit": "%"}, {"measurement": "Relative Activity (%)", "setting": "nNOS-II [2]; [4]", "result": 94, "unit": "%"}, {"measurement": "relative activity as substrate for nNOS-II (in words)", "setting": "nNOS-II [2]; text of Example 2", "result": "activity similar to that of arginine"}]}, {"compound": "Poly-arginine", "values": [{"measurement": "Relative Activity (%)", "setting": "nNOS-II [2]", "result": 30, "unit": "%"}, {"measurement": "Relative activity (%)", "setting": "nNOS-II [2]", "result": 30, "unit": "%"}, {"measurement": "activity for nNOS-II comparing to that of arginine", "setting": "nNOS-II [2]", "result": 30, "unit": "%"}]}, {"compound": "RPPGFSP [BK fragment 1-7]", "values": [{"measurement": "Relative activity (%)", "setting": "nNOS-II [2]; [3]", "result": 80, "unit": "%"}, {"measurement": "Relative Activity (%)", "setting": "nNOS-II [2]; [4]", "result": 80, "unit": "%"}, {"measurement": "decrease of activity as substrate", "setting": "nNOS-II [2]; text of Example 2, comparator not stated", "result": 30, "unit": "%"}]}, {"compound": "RPPGFSPFR [BK]", "values": [{"measurement": "Relative activity (%)", "setting": "nNOS-II [2]; [3]", "result": 125, "unit": "%"}, {"measurement": "Relative Activity (%)", "setting": "nNOS-II [2]; [4]", "result": 125, "unit": "%"}]}, {"compound": "[N-adamantaneacetyl-D-Arg^0, Hyp^3, Thi^5,8, D-Phe^7]-BK", "values": [{"measurement": "Ki", "setting": "nNOS-II [1]; nNOS-II with BK as substrate, competitive inhibition, read-out: apparent Ki", "result": 2500, "unit": "nM"}]}, {"compound": "[Thi^5,8, D-Phe^7]-BK (RPPG[2Thi]S[dF][2Thi]R)", "values": [{"measurement": "effect on nNOS-II activity", "setting": "nNOS-II [1]; concentration range of 0.5-100 μM", "result": "no effect"}, {"measurement": "effect on nNOS-II activity", "setting": "nNOS-II [1]; concentration range of 0.5-100 mM", "result": "no effect"}]}]}
